Reference: US6660837B1, “Modified protein derived from protein kinase N” (Kirin Beer Kabushiki Kaisha, priority 1995, dated 2003)
Values belong to the substance of their own block, whether it stands above or below them. Ends that are not written are not given here.

What was measured:
[1] = target: full-length human PKN (Homo sapiens, UniProt Q16512); assay: Co-immunoprecipitation of PKN with HA-tagged α-actinin in COS7 cells; format: cell-based
[2] = target: T1, in vitro translated PKNN2 (Homo sapiens, UniProt Q16512); assay: In vitro binding of GST-HuActSkl fragments to PKNN2; settings: resistant to 0.5% Triton X-100/0.5 M NaCl wash
T1 construct: made in house; host or cells: in vitro translation in rabbit reticulocyte lysate (Promega)
Procedure: In vitro transcription for the N-terminal region of PKN (the amino acid sequence 1-474, this region being designated as PKNN2 (Example 8)) was performed as described in Example 8. For in vitro translation, cRNAs were translated in rabbit reticulocyte lysate (Promega) in the presence of [^35S] methionine as described in Example 8.
(§1) For in vitro binding experiment, 2 μl of in vitro translated PKNN2 was mixed with 5 μg of each GST-α-actinin fusion protein or with 25 μg of GST alone in 400 μl of GST binding buffer (20 mM Tris/HCl at pH 7.5, 0.5 mM DTT, 150 mM NaCl, 0.05% Triton-X100, 1 mM EDTA, 1 μg/ml leupeptin) and incubated for 1 hr at 4° C. After addition of 25 μl of glutathione-Sepharose 4B pretreated with 10 mg/ml of E. coli extract to block nonspecific binding, the binding reaction was continued for additional 30 min at 4° C. The glutathione-Sepharose 4B was then washed four times in GST washing buffer (20 mM Tris/HCl at pH 7.5, 0.5 mM DTT, 1 mM EDTA, 1 μg/ml leupeptin) containing 0.5 M NaCl and 0.5% Triton X-100, and further washed with GST washing buffer. Bound proteins were eluted with GST elution buffer (100 mM Tris/HCl at pH 7.5, 10 mM glutathione, 120 mM NaCl, 1 mM EDTA, 0.5 mM DTT, 1 μg/ml leupeptin) and were subjected to SDS-PAGE. The binding was visualized and quantitated by an imaging analyzer (FUJI BAS1000).

[3] = test system: repeat 20 of rat α-spectrin; assay: In vitro binding of PKN to α-spectrin repeat 20
Procedure: cDNAs encoding the spectrin-like repeat 3 (the amino acid sequence 479-600) and EF-hand-like region (the amino acid sequence 712-843) of HuActNm were amplified by PCR from human brain cDNA library, and were ligated to pGEX4T vector. cDNAs encoding the spectrin repeat 20 and EF-hand-like region of α-actinin were amplified by PCR from rat brain cDNA library, and were ligated to pGEX4T vector. Expression and purification of GST or GST fusion proteins were performed according to the manufacturer's instruction (Phamacia Biotech Inc.). The eluate from glutathione-Sepharose 4B (Pharmacia Biotech Inc.) was dialyzed overnight against 10 mM Tris/HCl at pH 7.5 containing 1 mM EDTA, 1 mM DTT, and 0.1 μg/ml leupeptin.
Since PKN bound to the repeat 3 of α-actinin, the present inventors have examined whether PKN can bind to the repeat 20 of α-spectrin.

[4] = test system: GST-NF (each subunit) fusion proteins; assay: In vitro binding of in vitro translated PKN to GST-NF (each subunit); settings: GST pull-down
Text: For in vitro transcription, truncated human PKN was made as follows; Expression vector pPKNN2 for N-terminal region of PKN (the amino acid sequence 1-474 in SEQ ID NO: 1, this region was designated as “PKNN2”) was made by digesting phPKN-H4 (a plasmid containing human PKN cDNA in pBluescript II SK (Mukai, H. & Ono, Y., Biochem. Biophys. Res. Commun. 199, 897-904 (1994)) with Bst EII, and filling in the ends with T4 DNA polymerase, and self-legation. This removed the original amino acid sequences C-terminal downstream of the BstEII site (1425 nucleotides from initiating ATG codon), and a stop codon was created in the plasmid sequence. Fragment coding for the amino acid sequence 614-942 in SEQ ID NO: 1, (This region was designated as “PKNC2”) containing the conserved catalytic domain of human PKN was made by PCR amplification. Expression vector pPKNC2 was made by subcloning this fragment into pRc/CMV (Invitfrogen Corp.). These plasmids were linealized by cutting with XbaI, and CRNA was transcribed using T7 RNA polymerase. For NFL, pBL (Nakagawa, T. et al., J. Cell. Biol. 129, 411-429 (1995)) was linealized by cutting with HindIII, and CRNA was transcribed using T3 RNA polymerase. For in vitro translation, these cRNAs were translated in rabbit reticulocyte lysate (Promega) in the presence of [^35S] methionine. […]

[5] = target: T2, EF-hand-like domain of HuActNm (Homo sapiens, UniProt P12814); assay: In vitro binding of PKNN2 to HuActNm EF-hand-like domain
T2 construct: made in house; host or cells: E. coli (GST fusion); rabbit reticulocyte lysate (PKNN2)
Procedure: as §1
(§2) Accordingly, the present inventors have studied whether the in vitro translated PKNN2 could bind to the region of HuActNm corresponding to the PKN-binding site of HuActSkl in the same manner as in Example 25. The HuActNm fragment used in the experiment was prepared according to the following procedure. […]

[6] = target: T3, spectrin-like repeat 3 domain of HuActNm (Homo sapiens, UniProt P12814); assay: In vitro binding of PKNN2 to HuActNm spectrin-like repeat 3
T3 construct: made in house; host or cells: E. coli
Procedure: as §1, §2

[7] = target: T4, RhoA (Homo sapiens, UniProt P61586); assay: Yeast two-hybrid, region of PKN with RhoA; format: binding; settings: data not shown
T4 construct: expressed in transfected cells; host or cells: yeast (two-hybrid system)
Text: (§3) The two-hybrid methods was employed to identify the region of PKN that interacted with HuActSkl , and this region was compared with the binding site for RhoA, which binds to PKN, in vitro and in vivo. […] This region corresponds to the second leucine zipperlike sequence and the N-terminal region adjacent thereto, which is conserved through evolution in vertebrates (Mukai, H., et al., Biochim. Biophys. Acta 1261, 296-300 (1995)). Thus α-actinin binds to the region distinct from that which binds to Rho.

[8] = test system: α-actinin (HuActSkl); assay: Yeast two-hybrid, regions of PKN with HuActSkl; format: binding, human
Procedure: Schemes of the fusion constructs for human PKN, human skeletal muscle type α-actinin (HuActSkl , designated in (Beggs, A., et al., J. Biol. Chem. 267, 9281-9288 (1992)) and non-skeletal muscle type α-actinin (HuActNm, designated in (Beggs, A., et al., J. Biol. Chem. 267, 9281-9288 (1992)) used in this study are shown in FIGS. 41 and 42. Screening of proteins, which bind to the N-terminal region of human PKN (the amino acid sequence 1-540, this region being designated as “PKNNl”), was performed as described in Example 6. Primary positive clones were recovered and retransfected into the original yeast host strain YGH1 (a, ura3-52, his3-200, ade2-101, lys2-801, trpl-901, leu2-3, Can^r, gal4-542, gal80-538, LYS2::gal1uas-gal1tala-HIS3, URA3::gall-lacZ) in combination with the Gal4bd-PKN or the Gal4bd-p53 tumor suppresser. Plasmids that activated marker expression only in the presence of PKN were analyzed further.
as §3, with “Thus α-actinin binds to the region distinct from that which binds to Rho.” left out

T2 sequence (P12814 712-843): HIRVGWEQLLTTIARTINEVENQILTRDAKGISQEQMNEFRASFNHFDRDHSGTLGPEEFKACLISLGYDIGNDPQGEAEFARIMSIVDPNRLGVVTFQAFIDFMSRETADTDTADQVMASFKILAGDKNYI
T4 sequence (P61586 whole entry): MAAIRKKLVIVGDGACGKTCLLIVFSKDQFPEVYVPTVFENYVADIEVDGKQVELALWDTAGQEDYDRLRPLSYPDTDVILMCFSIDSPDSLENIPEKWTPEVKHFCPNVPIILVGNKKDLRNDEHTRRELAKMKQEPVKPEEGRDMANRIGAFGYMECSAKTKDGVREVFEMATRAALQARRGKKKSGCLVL
Chain of α-actinin (HuActSkl) (P35609 344-894 limits assumed): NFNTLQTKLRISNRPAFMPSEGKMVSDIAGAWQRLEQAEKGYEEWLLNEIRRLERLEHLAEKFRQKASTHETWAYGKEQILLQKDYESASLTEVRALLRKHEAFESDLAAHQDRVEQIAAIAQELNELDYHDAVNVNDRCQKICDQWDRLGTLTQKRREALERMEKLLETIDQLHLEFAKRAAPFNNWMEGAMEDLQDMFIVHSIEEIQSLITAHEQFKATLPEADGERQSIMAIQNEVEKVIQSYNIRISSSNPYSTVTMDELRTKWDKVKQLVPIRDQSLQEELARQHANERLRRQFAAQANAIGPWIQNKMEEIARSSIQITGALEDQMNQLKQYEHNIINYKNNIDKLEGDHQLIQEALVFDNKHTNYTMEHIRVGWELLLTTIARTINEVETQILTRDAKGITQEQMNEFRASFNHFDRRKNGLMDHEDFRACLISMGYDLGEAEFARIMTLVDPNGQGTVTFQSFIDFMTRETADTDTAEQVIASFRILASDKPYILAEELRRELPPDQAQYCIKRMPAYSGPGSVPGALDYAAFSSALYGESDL
T1 sequence (Q16512 1-474): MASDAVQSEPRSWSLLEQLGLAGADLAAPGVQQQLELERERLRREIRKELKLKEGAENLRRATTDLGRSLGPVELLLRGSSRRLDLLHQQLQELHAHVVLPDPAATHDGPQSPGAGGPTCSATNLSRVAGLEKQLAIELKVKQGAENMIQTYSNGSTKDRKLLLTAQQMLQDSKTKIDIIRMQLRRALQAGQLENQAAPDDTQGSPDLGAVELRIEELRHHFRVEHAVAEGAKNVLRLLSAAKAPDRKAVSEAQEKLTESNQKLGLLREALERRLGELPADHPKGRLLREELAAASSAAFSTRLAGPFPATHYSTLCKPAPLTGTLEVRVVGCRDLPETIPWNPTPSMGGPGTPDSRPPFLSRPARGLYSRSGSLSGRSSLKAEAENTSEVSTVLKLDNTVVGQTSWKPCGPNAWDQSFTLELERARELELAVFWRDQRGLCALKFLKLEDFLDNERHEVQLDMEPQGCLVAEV
Chain of full-length human PKN (P35609 333-894): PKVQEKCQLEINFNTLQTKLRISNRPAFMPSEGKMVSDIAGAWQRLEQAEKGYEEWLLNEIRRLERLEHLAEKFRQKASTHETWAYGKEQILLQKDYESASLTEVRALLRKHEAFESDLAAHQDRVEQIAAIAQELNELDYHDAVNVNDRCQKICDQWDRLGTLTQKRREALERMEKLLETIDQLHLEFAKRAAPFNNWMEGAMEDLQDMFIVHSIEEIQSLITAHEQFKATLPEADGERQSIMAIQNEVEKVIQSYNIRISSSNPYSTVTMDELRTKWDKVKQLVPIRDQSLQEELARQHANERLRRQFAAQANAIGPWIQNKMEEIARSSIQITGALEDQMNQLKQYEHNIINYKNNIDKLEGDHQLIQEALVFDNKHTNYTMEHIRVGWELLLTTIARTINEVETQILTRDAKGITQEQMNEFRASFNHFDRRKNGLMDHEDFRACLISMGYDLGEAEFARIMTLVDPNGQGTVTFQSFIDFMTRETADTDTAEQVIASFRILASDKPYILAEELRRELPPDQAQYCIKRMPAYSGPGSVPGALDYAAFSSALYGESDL
Chain of full-length human PKN (Q16512 whole entry, the tested form may be a part): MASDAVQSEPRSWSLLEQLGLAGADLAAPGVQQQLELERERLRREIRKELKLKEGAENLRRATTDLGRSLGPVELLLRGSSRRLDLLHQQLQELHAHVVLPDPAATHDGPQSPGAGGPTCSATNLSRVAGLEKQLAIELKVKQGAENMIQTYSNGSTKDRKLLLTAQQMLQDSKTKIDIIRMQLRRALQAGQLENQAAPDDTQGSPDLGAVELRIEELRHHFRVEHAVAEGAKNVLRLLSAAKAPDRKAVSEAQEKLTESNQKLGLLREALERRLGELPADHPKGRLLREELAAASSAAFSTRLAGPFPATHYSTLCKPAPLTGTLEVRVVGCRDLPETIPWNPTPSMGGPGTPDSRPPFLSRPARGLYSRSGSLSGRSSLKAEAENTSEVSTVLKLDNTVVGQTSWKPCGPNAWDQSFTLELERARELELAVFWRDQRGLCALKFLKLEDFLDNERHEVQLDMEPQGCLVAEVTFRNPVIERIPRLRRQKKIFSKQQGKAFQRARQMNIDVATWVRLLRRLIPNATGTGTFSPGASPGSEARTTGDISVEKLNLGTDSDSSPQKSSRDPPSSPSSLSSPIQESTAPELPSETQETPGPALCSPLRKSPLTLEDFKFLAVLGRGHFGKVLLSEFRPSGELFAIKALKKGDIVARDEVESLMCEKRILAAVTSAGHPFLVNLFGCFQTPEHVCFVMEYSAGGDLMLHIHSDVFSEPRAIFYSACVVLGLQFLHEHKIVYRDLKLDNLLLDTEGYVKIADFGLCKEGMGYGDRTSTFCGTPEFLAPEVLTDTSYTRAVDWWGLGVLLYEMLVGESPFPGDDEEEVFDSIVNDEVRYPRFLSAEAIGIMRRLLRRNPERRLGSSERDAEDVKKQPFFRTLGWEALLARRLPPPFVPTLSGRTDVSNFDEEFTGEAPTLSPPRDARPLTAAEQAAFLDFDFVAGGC
T3 sequence (P12814 479-600): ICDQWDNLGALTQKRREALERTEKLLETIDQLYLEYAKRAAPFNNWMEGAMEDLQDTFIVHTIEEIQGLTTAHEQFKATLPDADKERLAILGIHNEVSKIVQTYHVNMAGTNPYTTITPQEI

Substance: HA-tagged α-actinin: influenza HA epitope fused to the amino acid sequence 333-894 of HuActSkl (clone#4)
co-immunoprecipitation of PKN with anti-HA antibody [1]: contained substantially immunoreactive PKN

binding of in vitro translated PKNN2 to the fragment [2]: not
Substance: HuActSkl (837-894): human skeletal muscle type α-actinin fragment, GST fusion (ILASDKPYILAEELRRELPPDQAQYCIKRMPAYSGPGSVPGALDYAAFSSALYGESDL; also: GST fusion)

in vitro binding to repeat 20 of rat α-spectrin [3]: not detected
binding to each subunit of NF at the head-rod domain in vitro [4]: directly bound
Substance: PKN: in vitro translated PKN (PKNN2, 1-474) in the binding assays of b333 and b480

binding to EF-hand-like domain of HuActNm ([5]; absence of Ca^2+): not detected
binding to EF-hand-like region of HuActNm ([5]; presence of 1 mM Ca^2+): could effectively bind
binding to spectrin-like repeat 3 domain of HuActNm [6]: could bind
Substance: PKNN2: N-terminal region of PKN, amino acid sequence 1-474 in SEQ ID NO: 1, in vitro translated

interaction with RhoA in two-hybrid system [7]: no interaction was detected
Substance: amino acid 136-189 of PKN: region of PKN: second leucine zipper-like sequence and adjacent N-terminal region
interaction with α-actinin in two-hybrid system [8]: strongly interacted
